The target in this test is T1, Recombinant MBP-mutCALR Type 1 fusion protein (human).
T1 construct: custom made at Cepter; also called recombinant mutCALR protein
Nature of the test: SPR, IgG captured, 1:1 fit, Exp. 2. The procedure: Experiment 2: Recombinant MBP-mutCALR Type 1 fusion protein was custom made at Cepter (cepterbiopartners.com). Data for the interaction of antibodies with recombinant mutCALR protein were collected at 25° C. on a Biacore 8K instrument (Cytiva, Marlborough, Mass.), and all reagents were obtained from Cytiva unless otherwise specified. The experiments were conducted using Tris-buffered saline (pH 7.2), 0.005% Surfactant P20, 1 mM CaCl₂) as running buffer. To prepare the capture surfaces, anti-human IgG (Fc) antibodies (Product #29234600) was amine-coupled onto a CM4 chip (Product #BR100534) under standard conditions using an Amine Coupling Kit (Product #BR100050). […] The kinetics parameters were obtained by applying 1:1 binding model to fit the data from multiple-cycle injection experiments using Biacore Insight Evaluation software.

Positions count from the first letter of the chain named. Names may count otherwise.

B1: anti-mutCALR antibody clone 55 (antibody, human IgG1, lambda, N297A)
heavy: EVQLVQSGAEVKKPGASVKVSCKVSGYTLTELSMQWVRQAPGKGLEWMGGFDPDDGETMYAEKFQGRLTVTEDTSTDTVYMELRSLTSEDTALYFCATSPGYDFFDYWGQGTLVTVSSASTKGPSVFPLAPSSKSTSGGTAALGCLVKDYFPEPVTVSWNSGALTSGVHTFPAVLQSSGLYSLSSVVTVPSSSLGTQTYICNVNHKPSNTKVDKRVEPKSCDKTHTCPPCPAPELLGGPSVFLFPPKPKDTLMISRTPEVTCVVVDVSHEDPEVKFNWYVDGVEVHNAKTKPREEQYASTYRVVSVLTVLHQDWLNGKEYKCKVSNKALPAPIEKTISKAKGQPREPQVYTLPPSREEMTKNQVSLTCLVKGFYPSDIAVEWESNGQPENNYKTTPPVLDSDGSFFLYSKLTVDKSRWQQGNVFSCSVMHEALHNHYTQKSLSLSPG
light: QSALTQPASVSGSPGQSITISCTGTSSDVGGYNYVSWYQQHPGKAPKLMIYEVSNRPSGVSNRFSGSNSGNTATLTINRVEAGDEADYYCQVWDSSNDLLIFGGGTKLTVLGQPKAAPSVTLFPPSSEELQANKATLVCLISDFYPGAVTVAWKADSSPVKAGVETTTPSKQSNNKYAASSYLSLTPEQWKSHRSYSCQVTHEGSTVEKTVAPTECS
notes: human IgG1 N297A variant of clone 6; also called antibody 55
Consider B1, for which the Kd was determined as 0.171 nM, the koff came out at 0.000911 s⁻¹ and the kon amounted to 5.32e+06 M⁻¹ s⁻¹.

B2: anti-mutCALR antibody clone 61 (antibody, human IgG1, lambda, N297A, V domains shown)
VH: EVQLVQSGAEVKKPGASVKVSCKVSGYTLTELSMQWVRQAPGKGLEWMGGFDPDAGETMYAEKFQGRLTVTEDTSTDTVYMELSSLRSEDTAVYFCATSPGYDFFDYWGQGTLVTVSS
VL: QSALTQPASVSGSPGQSITISCTGTSSDVGGYNYVSWYQQHPGKAPKLMIYEVSNRPSGVSNRFSGSNSGNTATLTINRVEAGDEADYYCQVWDSSNDLLIFGGGTKLTVLG
notes: human IgG1 N297A variant of clone 6
For the molecule B2, the Kd was 0.893 nM, the koff is 0.00369 s⁻¹ and the kon turned out to be 4.13e+06 M⁻¹ s⁻¹.

B3: anti-mutCALR antibody clone 62 (antibody, human IgG1, lambda, N297A, V domains shown)
VH: B2 VH with A55S
VL: B2 VL
notes: as for B2
B3: the Kd is 1.76 nM, the koff came to 0.00621 s⁻¹ and the kon is 3.52e+06 M⁻¹ s⁻¹.

B4: anti-mutCALR antibody clone 56 (antibody, human IgG1, lambda, N297A, V domains shown)
VH: B2 VH with S84R, R87T, V93L
VL: B2 VL
notes: as for B2
For the molecule B4, the Kd was 3.08 nM, the koff worked out at 0.00212 s⁻¹ and the kon was 690000 M⁻¹ s⁻¹.

B5: anti-mutCALR antibody clone 59 (antibody, human IgG1, lambda, N297A, V domains shown)
VH: B2 VH with A55D, G56A, S84R, R87T, V93L
VL: B2 VL
notes: as for B2
On to B5, for which the dissociation constant Kd is 1.44 nM, the off-rate (koff) was determined as 0.00136 s⁻¹ and the kon was determined as 945000 M⁻¹ s⁻¹.

B6: anti-mutCALR antibody clone 63 (antibody, human IgG1, lambda, N297A, V domains shown)
VH: B2 VH with A55E
VL: B2 VL
notes: as for B2
As for B6, the Kd is 0.244 nM, the koff amounted to 0.000691 s⁻¹ and the kon was 2.83e+06 M⁻¹ s⁻¹.

B7: anti-mutCALR antibody clone 64 (antibody, human IgG1, lambda, N297A, V domains shown)
VH: B2 VH with A55D, G56A
VL: B2 VL
notes: as for B2
As to B7, the dissociation constant (Kd) came to 0.638 nM, the koff is 0.00248 s⁻¹ and the kon came out at 3.89e+06 M⁻¹ s⁻¹.

B8: anti-mutCALR antibody clone 57 (antibody, human IgG1, lambda, N297A, V domains shown)
VH: B2 VH with A55S, S84R, R87T, V93L
VL: B2 VL
notes: as for B2
As for B8, the Kd stood at 0.637 nM, the koff stood at 0.0039 s⁻¹ and the kon is 6.12e+06 M⁻¹ s⁻¹.

B9: anti-mutCALR antibody clone 60 (antibody, human IgG1, lambda, N297A, V domains shown)
VH: B2 VH with A55D
VL: B2 VL
notes: as for B2
Consider B9, for which the dissociation constant (Kd) amounted to 1.15 nM, the koff came to 0.00166 s⁻¹ and the kon was found to be 1.44e+06 M⁻¹ s⁻¹.

B10: anti-mutCALR antibody clone 58 (antibody, human IgG1, lambda, N297A, V domains shown)
VH: B2 VH with A55E, S84R, R87T, V93L
VL: B2 VL
notes: as for B2
Consider B10, for which the dissociation constant Kd turned out to be 0.343 nM, the koff was found to be 0.00232 s⁻¹ and the kon turned out to be 6.76e+06 M⁻¹ s⁻¹.

B11: anti-mutCALR antibody clone 187 (antibody, human IgG1, lambda, N297A, V domains shown)
VH: B2 VH with A55S
VL: SYVLTQPPSVSVAPGQTARITCGGSDIGDEIVHWYQQKPGQAPVLVVYDDSDRPSGIPERFSGSNSGNTATLTISRVEAGDEADYYCQVWDSSSDHLIFGGGTKLTVLG
notes: human IgG1 N297A variant of clone 17
In the case of B11, the equilibrium dissociation constant (Kd) is 1.59 nM, the koff was 0.0163 s⁻¹ and the kon came out at 1e+07 M⁻¹ s⁻¹.

B12: anti-mutCALR antibody clone 70 (antibody, human IgG1, lambda, N297A, V domains shown)
VH: B2 VH with A55D
VL: SYVLTQPPSVSVAPGKTARITCTGTSSDVGGYNYVSWYQQKPGQAPVLVVYEVSNRPSGIPERFSGSNSGNTATLTISRVEAGDEADYYCQVWDSSNDLLIFGGGTKLTVLG
notes: as for B2
Regarding B12, the Kd stood at 0.966 nM, the koff was found to be 0.000953 s⁻¹ and the association rate constant (kon) stood at 987000 M⁻¹ s⁻¹.

B13: anti-mutCALR antibody clone 179 (antibody, human IgG1, lambda, N297A, V domains shown)
VH: B2 VH with A55D, G56A
VL: B11 VL with V77A, E78Q
notes: as for B11
Consider B13, for which the dissociation constant (Kd) amounted to 0.455 nM, the koff was found to be 0.00681 s⁻¹ and the kon amounted to 1e+07 M⁻¹ s⁻¹.

B14: anti-mutCALR antibody clone 73 (antibody, human IgG1, lambda, N297A, V domains shown)
VH: B2 VH with A55E
VL: B12 VL
notes: as for B2
With B14, the Kd came out at 0.76 nM, the koff is 0.00546 s⁻¹ and the kon stood at 7.18e+06 M⁻¹ s⁻¹.

B15: anti-mutCALR antibody clone 71 (antibody, human IgG1, lambda, N297A, V domains shown)
VH: B2 VH
VL: B12 VL
notes: as for B2
For the molecule B15, the Kd stood at 2.31 nM, the koff was found to be 0.0107 s⁻¹ and the kon was 4.63e+06 M⁻¹ s⁻¹.

B16: anti-mutCALR antibody clone 69 (antibody, human IgG1, lambda, N297A, V domains shown)
VH: B2 VH with A55D, G56A, S84R, R87T, V93L
VL: B12 VL
notes: as for B2
Regarding B16, the equilibrium dissociation constant (Kd) stood at 0.53 nM, the koff came to 0.00527 s⁻¹ and the kon came out at 9.94e+06 M⁻¹ s⁻¹.

B17: anti-mutCALR antibody clone 67 (antibody, human IgG1, lambda, N297A, V domains shown)
VH: B2 VH with A55S, S84R, R87T, V93L
VL: B12 VL
notes: as for B2
As to B17, the Kd was determined as 3.34 nM, the dissociation rate constant (koff) was determined as 0.0102 s⁻¹ and the kon is 3.05e+06 M⁻¹ s⁻¹.

B18: anti-mutCALR antibody clone 66 (antibody, human IgG1, lambda, N297A, V domains shown)
VH: B2 VH with S84R, R87T, V93L
VL: B12 VL
notes: as for B2
Regarding B18, the Kd was determined as 2.36 nM, the koff turned out to be 0.00836 s⁻¹ and the kon amounted to 3.54e+06 M⁻¹ s⁻¹.

B19: anti-mutCALR antibody clone 72 (antibody, human IgG1, lambda, N297A, V domains shown)
VH: B2 VH with A55S
VL: B12 VL
notes: as for B2
With B19, the Kd was determined as 3.74 nM, the koff was found to be 0.00382 s⁻¹ and the kon was 1.02e+06 M⁻¹ s⁻¹.

B20: anti-mutCALR antibody clone 68 (antibody, human IgG1, lambda, N297A, V domains shown)
VH: B2 VH with A55E, S84R, R87T, V93L
VL: B12 VL
notes: as for B2
For B20, the dissociation constant Kd was 1.15 nM, the koff came out at 0.00166 s⁻¹ and the kon came to 1.44e+06 M⁻¹ s⁻¹.

B21: anti-mutCALR antibody clone 188 (antibody, human IgG1, lambda, N297A, V domains shown)
VH: B2 VH with A55E
VL: B11 VL
notes: as for B11
Take B21: the Kd turned out to be 1.65 nM, the koff was determined as 0.00121 s⁻¹ and the kon was 732000 M⁻¹ s⁻¹.

B22: anti-mutCALR antibody clone 189 (antibody, human IgG1, lambda, N297A, V domains shown)
VH: B2 VH with A55D, G56A
VL: B11 VL
Regarding B22, the Kd was 0.422 nM, the off-rate constant (koff) worked out at 0.0153 s⁻¹ and the on-rate constant (kon) was above 1e+07 M⁻¹ s⁻¹.

As a reminder, the Kd is a measure of binding affinity in units of concentration. Broadly, the koff is the rate constant with which the complex falls apart. By kon is commonly meant a measure of how fast the partners come together.

(Values after patent publication US20230272055A1 (Incyte, published 2023).)
